From paper PMC11189301, “Structure of the human outer kinetochore KMN network complex” (Nature Structural & Molecular Biology, 2024)

T1: Knl1 residues 1870–2342 (human, UniProt Q8NG31 1870-2342)
T1 construct: Knl1, human, 2,342-residue protein, residues 1870-2342; coordinates traced R2097–H2342; Subunit within the KMN network cryo-EM sample; also called extended version of the Knl1 C terminus; source: High-5 insect cells, expressed and purified as part of KNL1C
T1 sequence (looked up): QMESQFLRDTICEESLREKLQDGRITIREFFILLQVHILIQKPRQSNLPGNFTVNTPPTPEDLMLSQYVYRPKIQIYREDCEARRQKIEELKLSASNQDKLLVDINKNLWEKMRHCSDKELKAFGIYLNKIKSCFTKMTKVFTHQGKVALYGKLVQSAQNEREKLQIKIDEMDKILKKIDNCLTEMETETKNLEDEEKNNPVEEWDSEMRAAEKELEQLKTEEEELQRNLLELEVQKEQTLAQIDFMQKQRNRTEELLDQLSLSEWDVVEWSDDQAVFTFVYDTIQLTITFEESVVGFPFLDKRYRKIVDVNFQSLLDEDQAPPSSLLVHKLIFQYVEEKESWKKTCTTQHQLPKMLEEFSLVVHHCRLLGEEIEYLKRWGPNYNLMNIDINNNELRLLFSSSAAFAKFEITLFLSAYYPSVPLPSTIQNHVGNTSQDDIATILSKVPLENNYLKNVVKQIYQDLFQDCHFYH

B1: Nsl1 (natural protein, Homo sapiens, UniProt Q96IY1 1-281, looked up)
chain: MAGSPELVVLDPPWDKELAAGTESQALVSATPREDFRVRCTSKRAVTEMLQLCGRFVQKLGDALPEEIREPALRDAQWTFESAVQENISINGQAWQEASDNCFMDSDIKVLEDQFDEIIVDIATKRKQYPRKILECVIKTIKAKQEILKQYHPVVHPLDLKYDPDPAPHMENLKCRGETVAKEISEAMKSLPALIEQGEGFSQVLRMQPVIHLQRIHQEVFSSCHRKPDAKPENFITQIETTPTETASRKTSDMVLKRKQTKDCPQRKWYPLRPKKINLDT
notes: Nsl1, subunit of human MIS12C; Subunit within the KMN network cryo-EM sample; source: High-5 insect cells, expressed and purified as part of MIS12C
B2: Dsn1 (natural protein, Homo sapiens, UniProt Q9H410 1-356, looked up)
chain: MTSVTRSEIIDEKGPVMSKTHDHQLESSLSPVEVFAKTSASLEMNQGVSEERIHLGSSPKKGGNCDLSHQERLQSKSLHLSPQEQSASYQDRRQSWRRASMKETNRRKSLHPIHQGITELSRSISVDLAESKRLGCLLLSSFQFSIQKLEPFLRDTKGFSLESFRAKASSLSEELKHFADGLETDGTLQKCFEDSNGKASDFSLEASVAEMKEYITKFSLERQTWDQLLLHYQQEAKEILSRGSTEAKITEVKVEPMTYLGSSQNEVLNTKPDYQKILQNQSKVFDCMELVMDELQGSVKQLQAFMDESTQCFQKVSVQLGKRSMQQLDPSPARKLLKLQLQNPPAIHGSGSGSCQ
notes: Dsn1, subunit of human MIS12C; Subunit within the KMN network cryo-EM sample; residues N-terminal to Arg92 are disordered; source: High-5 insect cells, expressed and purified as part of MIS12C

Legend:
Knl1 residues 1870–2342 = biological target: T1, Knl1 residues 1870–2342; assay: cryo-EM structure; NDC80C, MIS12C and KNL1C mixed 1:1:1 and run on Superose 6 in 20 mM HEPES pH 8.0, 80 mM NaCl, 1 mM MgCl2, 1 mM TCEP; about 1 mg/ml on UltrAuFoil grids; 3.0 Å (MIS12C heads 3.8 Å); details: both partners purified
Dsn1 = biological target: B2; assay: as above; details: both partners purified
Nsl1 = biological target: B1; assay: as above; details: both partners purified
MIS12C = assay: SEC assessment of Knl1 mutants binding to MIS12C; design: species or system Homo sapiens; details: Knl1 (2131–2337) mutant + MIS12C at 4 µM each, 20 mM HEPES pH 7.8, 150 mM NaCl, 0.5 mM TCEP, Superose 6, at least two repeats
Method: Assessment of substitutions in the MIS12C–KNL1 interfaces
To test the effect of substitutions in the MIS12C–KNL1 interfaces, either wild-type MIS12C or MIS12C^Nsl1ΔC was mixed with either wild-type KNL1 or two mutants (KNL1^R2248D […] (KNL1^mut1), KNL1^S2270R S2272W (KNL1^mut2)) at 4 µM each in a buffer of 20 mM HEPES (pH 7.8), 150 mM NaCl and 0.5 mM TCEP, and 50 µl was loaded onto a Superose 6 size-exclusion column (Cytiva).
Extended Data Fig. 9 Biochemical validation of the MIS12C:Knl1 interface. a Coomassie blue-stained SDS-PAGE gels of the MIS12C:Knl1 interaction reconstitutions. MIS12C (WT) and MIS12C with Nsl1 truncated at the C-terminus (1–264 Nsl1 construct, MIS12C^Nsl1ΔC) were tested in their ability to bind either wild-type RWD domains of Knl1 (2131–2337 construct, labelled Knl1 for simplicity) or Knl1 mutants (R2248D/W2249S substitutions, Knl1^mut1, and S2270R/S2272W substitutions, Knl1^mut2, as well as S2270R/S2272W/R2248A/W2249S substitutions, Knl1^mut3). The binding experiments were repeated at least two independent times with identical results. The gels are aligned according to the fraction number of the protein sample eluted from the size exclusion column. b SEC elution chromatograms of all of the experiments described in (a). Source data

binding result (Knl1 residues 1870–2342) | binding result (Dsn1) | binding result (Nsl1) | Molecule | MIS12C–Knl1 interaction by SEC, in words (MIS12C) | other results
binds | binds | – | B1 | – | –
– | binds | binds | Spc25 (natural protein, Homo sapiens, UniProt Q9HBM1 1-224, looked up, Spc25, subunit of human NDC80C; coordinates traced D80–N224; Subunit within the KMN network cryo-EM sample; source: High-5 insect cells, expressed and purified as part of NDC80C) MVEDELALFDKSINEFWNKFKSTDTSCQMAGLRDTYKDSIKAFAEKLSVKLKEEERMVEMFLEYQNQISRQNKLIQEKKDNLLKLIAEVKGKKQELEVLTANIQDLKEEYSRKKETISTANKANAERLKRLQKSADLYKDRLGLEIRKIYGEKLQFIFTNIDPKNPESPFMFSLHLNEARDYEVSDSAPHLEGLAEFQENVRKTNNFSAFLANVRKAFTATVYN | – | –
– | binds | binds | Mis12 (natural protein, Homo sapiens, UniProt Q9H081 1-205, looked up, Mis12, subunit of human MIS12C; Subunit within the KMN network cryo-EM sample; source: High-5 insect cells, expressed and purified as part of MIS12C) MSVDPMTYEAQFFGFTPQTCMLRIYIAFQDYLFEVMQAVEQVILKKLDGIPDCDISPVQIRKCTEKFLCFMKGHFDNLFSKMEQLFLQLILRIPSNILLPEDKCKETPYSEEDFQHLQKEIEQLQEKYKTELCTKQALLAELEEQKIVQAKLKQTLTFFDELHNVGRDHGTSDFRESLVSLVQNSRKLQNIRDNVEKESKRLKIS | – | –
binds | – | binds | ZWINT (natural protein, human, UniProt O95229 1-277, looked up, ZWINT, human; coordinates traced Q183–G221; Subunit within the KMN network cryo-EM sample; source: High-5 insect cells, expressed and purified as part of KNL1C) MEAAETEAEAAALEVLAEVAGILEPVGLQEEAELPAKILVEFVVDSQKKDKLLCSQLQVADFLQNILAQEDTAKGLDPLASEDTSRQKAIAAKEQWKELKATYREHVEAIKIGLTKALTQMEEAQRKRTQLREAFEQLQAKKQMAMEKRRAVQNQWQLQQEKHLQHLAEVSAEVRERKTGTQQELDRVFQKLGNLKQQAEQERDKLQRYQTFLQLLYTLQGKLLFPEAEAEAENLPDDKPQQPTRPQEQSTGDTMGRDPGVSFKAVGLQPAGDVNLP | – | –
– | – | – | Knl1^mut2: Knl1 (2131–2337 construct) with S2270R S2272W substitutions (protein, left off: His6, N-terminal, cleaved, Knl1 (2131–2337 construct) with S2270R S2272W substitutions) SLSEWDVVEWSDDQAVFTFVYDTIQLTITFEESVVGFPFLDKRYRKIVDVNFQSLLDEDQAPPSSLLVHKLIFQYVEEKESWKKTCTTQHQLPKMLEEFSLVVHHCRLLGEEIEYLKRWGPNYNLMNIDINNNELRLLFRSWAAFAKFEITLFLSAYYPSVPLPSTIQNHVGNTSQDDIATILSKVPLENNYLKNVVKQIYQDLFQD | did not importantly disrupt MIS12C–Knl1 interactions | MIS12C–Knl1 interaction by SEC, in words (MIS12C; listed as Knl1mut2): does not appear to reduce interaction with MIS12C
– | – | – | Knl1^mut3: Knl1 (2131–2337 construct) with S2270R S2272W R2248A W2249A substitutions (protein, UniProt Q8NG31 2131-2337, looked up, variant S2270R S2272W R2248A W2249A) SLSEWDVVEWSDDQAVFTFVYDTIQLTITFEESVVGFPFLDKRYRKIVDVNFQSLLDEDQAPPSSLLVHKLIFQYVEEKESWKKTCTTQHQLPKMLEEFSLVVHHCRLLGEEIEYLKAAGPNYNLMNIDINNNELRLLFRSWAAFAKFEITLFLSAYYPSVPLPSTIQNHVGNTSQDDIATILSKVPLENNYLKNVVKQIYQDLFQD | little to no change in the interaction | –
– | – | – | Knl1^mut1: Knl1 (2131–2337 construct) with R2248D W2249A substitutions (protein, UniProt Q8NG31 2131-2337, looked up, variant R2248D W2249A) SLSEWDVVEWSDDQAVFTFVYDTIQLTITFEESVVGFPFLDKRYRKIVDVNFQSLLDEDQAPPSSLLVHKLIFQYVEEKESWKKTCTTQHQLPKMLEEFSLVVHHCRLLGEEIEYLKDAGPNYNLMNIDINNNELRLLFSSSAAFAKFEITLFLSAYYPSVPLPSTIQNHVGNTSQDDIATILSKVPLENNYLKNVVKQIYQDLFQD | did not importantly disrupt MIS12C–Knl1 interactions | –
binds | – | – | B2 | – | –
